# Reference: US20040014036
# Key:
# [1] = tested on: Gal4 full length (Saccharomyces cerevisiae); assay: cell_activity; settings: yeast lacZ reporter, 5x17mer; activation dependent on Gal4 sites stated for the peptide activators
# [2] = tested on: Gal4(1-100)-LS201 (Saccharomyces cerevisiae); assay: cell_activity; settings: yeast JPY9:RJR227 lacZ reporter; activation dependent on Gal4 sites (p75)
substance,measurement,setting,value
"GAL4 consensus 17mer sites (five, reporter pRJR227)",activity (beta-gal units),[1],2350
same,activity (beta-gal units),[2],5290
